Measured values published in patent US20130011380A1.

Legend:
Assay in all cases: anti-Flag IP-MS, mES nuclear extract
[1] = biological target: Ints3 (mouse) (UniProt Q7TPD0)
[2] = biological target: Aars (mouse) (UniProt Q8BGQ7)
[3] = biological target: Pfkl (mouse) (UniProt P12382)
[4] = biological target: Cbx5 (mouse) (UniProt Q61686)
[5] = biological target: Cnot1 (mouse) (UniProt Q6ZQ08)
[6] = biological target: Tufm (mouse) (UniProt Q8BFR5)
[7] = biological target: Ahdc1 (mouse) (UniProt Q6PAL7)
[8] = biological target: Atxn2l (mouse) (UniProt Q7TQH0)
[9] = biological target: Nup214 (mouse) (UniProt Q80U93)
[10] = biological target: Ddb1 (mouse) (UniProt Q3U1J4)
[11] = biological target: Mtap1b (mouse) (UniProt P14873)
[12] = biological target: Nasp (mouse) (UniProt Q99MD9)
[13] = biological target: Ranbp2 (mouse) (UniProt Q9ERU9)
[14] = biological target: Gart (mouse) (UniProt Q64737)
[15] = biological target: Ncapg (mouse) (UniProt E9PWG6)
[16] = biological target: Nup188 (mouse) (UniProt Q6ZQH8)
[17] = biological target: Chd4 (mouse) (UniProt Q6PDQ2)
[18] = biological target: Etl4 (mouse) (UniProt A2AQ25)
[19] = biological target: Cul4b (mouse) (UniProt A2A432)
[20] = biological target: Aff1 (mouse) (UniProt O88573)
[21] = biological target: Emd (mouse) (UniProt O08579)
[22] = biological target: Dars (mouse) (UniProt Q922B2)
[23] = biological target: Rif1 (mouse) (UniProt Q6PR54)
[24] = biological target: Racgap1 (mouse) (UniProt Q9WVM1)
[25] = biological target: Wapal (mouse) (UniProt Q65Z40)
[26] = biological target: Nars (mouse) (UniProt Q8BP47)
[27] = biological target: Gm1040 (mouse) (UniProt Q3UFM5)
[28] = biological target: Mcm4 (mouse) (UniProt P49717)
[29] = biological target: Tubb6 (mouse) (UniProt Q922F4)
[30] = biological target: Lmna (mouse) (UniProt P48678)
[31] = biological target: Pum1 (mouse) (UniProt Q80U78)
[32] = biological target: Mcm6 (mouse) (UniProt P97311)
[33] = biological target: Rps6ka1 (mouse) (UniProt P18653)
[34] = biological target: Smpd4 (mouse) (UniProt Q6ZPR5)
[35] = biological target: Prdx6 (mouse) (UniProt O08709)
[36] = biological target: Ywhab (mouse) (UniProt Q9CQV8)
[37] = biological target: Smc3 (mouse) (UniProt Q9CW03)
[38] = biological target: Sall4 (mouse) (UniProt Q8BX22)
[39] = biological target: Smc4 (mouse) (UniProt Q8CG47)
[40] = biological target: Plekha7 (mouse) (UniProt Q3UIL6)

Sequence of Etl4 (mouse) (A2AQ25 whole entry): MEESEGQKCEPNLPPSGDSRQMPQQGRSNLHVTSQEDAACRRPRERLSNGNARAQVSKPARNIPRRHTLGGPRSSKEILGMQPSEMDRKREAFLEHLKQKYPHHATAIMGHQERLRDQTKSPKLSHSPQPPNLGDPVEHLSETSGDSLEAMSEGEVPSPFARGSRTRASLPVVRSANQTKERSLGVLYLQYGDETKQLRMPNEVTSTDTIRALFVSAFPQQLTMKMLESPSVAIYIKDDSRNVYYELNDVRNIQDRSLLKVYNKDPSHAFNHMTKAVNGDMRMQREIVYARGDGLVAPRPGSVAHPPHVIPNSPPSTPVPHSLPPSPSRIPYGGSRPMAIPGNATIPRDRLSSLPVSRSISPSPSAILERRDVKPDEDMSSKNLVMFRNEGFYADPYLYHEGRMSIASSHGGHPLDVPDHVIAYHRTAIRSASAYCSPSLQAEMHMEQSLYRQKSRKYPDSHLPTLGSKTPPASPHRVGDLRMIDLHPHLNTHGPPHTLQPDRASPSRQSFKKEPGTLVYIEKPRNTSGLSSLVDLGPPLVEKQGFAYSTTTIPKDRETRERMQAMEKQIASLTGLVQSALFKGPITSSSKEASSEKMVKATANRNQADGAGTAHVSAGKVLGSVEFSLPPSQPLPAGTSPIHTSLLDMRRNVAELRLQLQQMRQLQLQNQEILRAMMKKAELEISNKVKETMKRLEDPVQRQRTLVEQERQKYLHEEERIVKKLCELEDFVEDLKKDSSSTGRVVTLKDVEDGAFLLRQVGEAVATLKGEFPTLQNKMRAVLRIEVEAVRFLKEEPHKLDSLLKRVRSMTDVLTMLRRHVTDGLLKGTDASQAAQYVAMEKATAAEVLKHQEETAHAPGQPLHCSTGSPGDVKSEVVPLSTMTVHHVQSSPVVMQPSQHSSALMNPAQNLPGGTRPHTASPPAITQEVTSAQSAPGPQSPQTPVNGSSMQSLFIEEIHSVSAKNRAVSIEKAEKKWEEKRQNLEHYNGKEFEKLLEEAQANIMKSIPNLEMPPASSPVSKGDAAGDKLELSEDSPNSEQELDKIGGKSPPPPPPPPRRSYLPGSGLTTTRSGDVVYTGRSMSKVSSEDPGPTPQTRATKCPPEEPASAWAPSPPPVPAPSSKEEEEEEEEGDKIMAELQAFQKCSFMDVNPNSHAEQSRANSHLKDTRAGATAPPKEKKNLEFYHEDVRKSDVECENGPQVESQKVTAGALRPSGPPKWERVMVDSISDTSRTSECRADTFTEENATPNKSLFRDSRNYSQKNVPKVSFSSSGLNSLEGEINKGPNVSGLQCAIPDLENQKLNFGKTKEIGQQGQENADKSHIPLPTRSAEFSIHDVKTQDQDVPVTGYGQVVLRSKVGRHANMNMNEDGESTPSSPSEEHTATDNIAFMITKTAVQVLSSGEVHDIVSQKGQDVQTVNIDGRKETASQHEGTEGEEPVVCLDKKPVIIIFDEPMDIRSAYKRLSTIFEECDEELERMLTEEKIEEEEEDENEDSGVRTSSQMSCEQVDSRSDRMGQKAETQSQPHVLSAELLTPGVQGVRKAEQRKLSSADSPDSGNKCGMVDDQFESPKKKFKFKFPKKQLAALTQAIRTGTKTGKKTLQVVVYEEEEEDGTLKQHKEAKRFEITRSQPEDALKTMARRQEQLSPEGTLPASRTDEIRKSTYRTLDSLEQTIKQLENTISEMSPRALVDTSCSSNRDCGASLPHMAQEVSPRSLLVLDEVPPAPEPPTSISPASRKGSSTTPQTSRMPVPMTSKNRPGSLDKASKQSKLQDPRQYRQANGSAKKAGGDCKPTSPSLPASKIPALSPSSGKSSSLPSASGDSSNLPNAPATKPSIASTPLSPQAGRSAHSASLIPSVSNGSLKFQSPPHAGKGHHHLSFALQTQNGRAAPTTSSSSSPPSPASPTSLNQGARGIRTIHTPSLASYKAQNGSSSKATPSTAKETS
Sequence of Cnot1 (mouse) (Q6ZQ08 whole entry): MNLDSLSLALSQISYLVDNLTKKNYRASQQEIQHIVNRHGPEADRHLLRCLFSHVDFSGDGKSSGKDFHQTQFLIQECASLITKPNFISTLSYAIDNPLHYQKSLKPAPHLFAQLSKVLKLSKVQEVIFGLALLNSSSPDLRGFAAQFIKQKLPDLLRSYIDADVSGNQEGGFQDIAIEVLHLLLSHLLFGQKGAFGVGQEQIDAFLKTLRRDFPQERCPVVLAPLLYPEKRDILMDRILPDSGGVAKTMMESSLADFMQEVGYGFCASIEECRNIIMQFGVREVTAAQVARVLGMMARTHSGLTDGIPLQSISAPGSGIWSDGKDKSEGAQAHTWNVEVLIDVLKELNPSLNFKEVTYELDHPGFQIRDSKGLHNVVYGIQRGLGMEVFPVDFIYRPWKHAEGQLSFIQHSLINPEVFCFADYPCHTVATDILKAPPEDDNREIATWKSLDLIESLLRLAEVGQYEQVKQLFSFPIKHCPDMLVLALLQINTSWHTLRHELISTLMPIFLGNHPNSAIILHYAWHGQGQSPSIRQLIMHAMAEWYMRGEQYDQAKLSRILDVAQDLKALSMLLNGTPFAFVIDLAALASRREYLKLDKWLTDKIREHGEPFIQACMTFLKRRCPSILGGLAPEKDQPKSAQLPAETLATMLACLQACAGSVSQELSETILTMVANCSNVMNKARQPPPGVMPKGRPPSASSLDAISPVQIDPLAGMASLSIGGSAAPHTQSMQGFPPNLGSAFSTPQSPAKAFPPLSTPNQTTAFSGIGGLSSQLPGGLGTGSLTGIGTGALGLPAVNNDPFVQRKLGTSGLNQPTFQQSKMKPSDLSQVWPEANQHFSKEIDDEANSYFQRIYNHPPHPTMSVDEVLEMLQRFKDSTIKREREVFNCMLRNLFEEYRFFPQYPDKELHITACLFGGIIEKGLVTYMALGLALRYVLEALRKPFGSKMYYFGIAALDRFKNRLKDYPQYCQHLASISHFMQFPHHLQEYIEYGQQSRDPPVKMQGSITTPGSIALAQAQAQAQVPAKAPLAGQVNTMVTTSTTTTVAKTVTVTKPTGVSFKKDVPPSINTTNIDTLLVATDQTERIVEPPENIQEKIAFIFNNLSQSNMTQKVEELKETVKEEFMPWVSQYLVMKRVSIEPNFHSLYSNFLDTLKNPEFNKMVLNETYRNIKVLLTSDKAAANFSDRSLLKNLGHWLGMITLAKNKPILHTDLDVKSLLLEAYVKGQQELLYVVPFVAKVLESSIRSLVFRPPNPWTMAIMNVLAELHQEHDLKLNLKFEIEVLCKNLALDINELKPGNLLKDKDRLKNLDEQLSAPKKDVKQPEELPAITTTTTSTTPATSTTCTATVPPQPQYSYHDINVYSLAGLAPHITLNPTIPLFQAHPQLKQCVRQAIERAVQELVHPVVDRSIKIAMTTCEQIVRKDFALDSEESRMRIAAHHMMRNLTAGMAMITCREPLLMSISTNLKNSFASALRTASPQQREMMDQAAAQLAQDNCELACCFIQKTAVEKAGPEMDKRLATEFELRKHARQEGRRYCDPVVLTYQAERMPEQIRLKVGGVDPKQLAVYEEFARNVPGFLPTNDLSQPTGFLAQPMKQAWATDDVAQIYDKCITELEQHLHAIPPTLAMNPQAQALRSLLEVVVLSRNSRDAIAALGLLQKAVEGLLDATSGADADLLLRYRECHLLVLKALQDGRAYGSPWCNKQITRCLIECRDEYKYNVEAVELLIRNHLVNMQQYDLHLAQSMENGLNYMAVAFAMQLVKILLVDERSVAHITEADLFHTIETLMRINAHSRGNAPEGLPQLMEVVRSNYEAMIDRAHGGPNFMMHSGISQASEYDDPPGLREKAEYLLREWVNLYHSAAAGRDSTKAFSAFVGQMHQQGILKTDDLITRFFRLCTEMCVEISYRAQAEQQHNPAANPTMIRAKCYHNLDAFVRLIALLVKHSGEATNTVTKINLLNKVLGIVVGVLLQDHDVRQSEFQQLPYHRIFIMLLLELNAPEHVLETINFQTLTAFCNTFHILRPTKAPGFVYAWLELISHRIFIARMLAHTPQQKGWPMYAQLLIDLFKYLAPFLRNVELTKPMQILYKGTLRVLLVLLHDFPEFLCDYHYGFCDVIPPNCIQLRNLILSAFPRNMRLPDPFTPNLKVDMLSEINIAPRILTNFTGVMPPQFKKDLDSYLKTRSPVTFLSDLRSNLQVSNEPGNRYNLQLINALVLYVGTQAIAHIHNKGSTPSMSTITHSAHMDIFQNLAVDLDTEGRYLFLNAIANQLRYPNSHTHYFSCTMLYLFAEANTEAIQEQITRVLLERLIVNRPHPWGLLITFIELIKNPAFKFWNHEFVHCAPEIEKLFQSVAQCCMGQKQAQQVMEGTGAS
Sequence of Lmna (mouse) (P48678 1-647 limits assumed): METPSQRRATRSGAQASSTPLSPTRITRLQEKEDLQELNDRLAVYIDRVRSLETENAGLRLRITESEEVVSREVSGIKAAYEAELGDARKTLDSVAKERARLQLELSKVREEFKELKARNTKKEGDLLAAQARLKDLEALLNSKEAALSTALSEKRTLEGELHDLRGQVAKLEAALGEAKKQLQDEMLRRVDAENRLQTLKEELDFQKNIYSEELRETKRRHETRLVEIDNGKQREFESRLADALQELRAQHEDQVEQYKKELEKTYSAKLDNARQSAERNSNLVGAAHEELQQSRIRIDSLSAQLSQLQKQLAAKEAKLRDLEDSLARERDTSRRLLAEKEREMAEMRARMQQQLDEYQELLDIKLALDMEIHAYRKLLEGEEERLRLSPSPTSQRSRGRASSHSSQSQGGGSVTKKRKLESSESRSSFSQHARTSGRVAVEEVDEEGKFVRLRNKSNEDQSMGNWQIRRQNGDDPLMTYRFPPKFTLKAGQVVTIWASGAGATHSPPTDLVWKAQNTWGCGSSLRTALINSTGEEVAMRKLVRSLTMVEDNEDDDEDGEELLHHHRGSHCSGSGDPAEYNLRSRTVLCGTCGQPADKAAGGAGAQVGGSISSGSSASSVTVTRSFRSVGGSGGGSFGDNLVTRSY

Which results are given for 2x Flag tag only (control) (peptide)?
Nucleus peptide [1]: 0 peptides; Nucleus spectra [1]: 0 spectra; Nucleus peptide [2]: 3 peptides; Nucleus spectra [2]: 4 spectra; Nucleus peptide [3]: 1 peptides; Nucleus spectra [3]: 1 spectra; Nucleus peptide [4]: 2 peptides; Nucleus spectra [4]: 3 spectra; Nucleus peptide [5]: 3 peptides; Nucleus spectra [5]: 4 spectra; Nucleus peptide [6]: 6 peptides; Nucleus spectra [6]: 11 spectra; Nucleus peptide [7]: 0 peptides; Nucleus spectra [7]: 0 spectra; Nucleus peptide [8]: 2 peptides; Nucleus spectra [8]: 3 spectra; Nucleus peptide [9]: 7 peptides; Nucleus spectra [9]: 11 spectra; Nucleus peptide [10]: 0 peptides; Nucleus spectra [10]: 0 spectra; Nucleus peptide [11]: 0 peptides; Nucleus spectra [11]: 0 spectra; Nucleus peptide [12]: 1 peptides; Nucleus spectra [12]: 1 spectra; Nucleus peptide [13]: 8 peptides; Nucleus spectra [13]: 12 spectra; Nucleus peptide [14]: 2 peptides; Nucleus spectra [14]: 3 spectra; Nucleus peptide [15]: 0 peptides; Nucleus spectra [15]: 0 spectra; Nucleus peptide [16]: 2 peptides; Nucleus spectra [16]: 3 spectra; Nucleus peptide [17]: 4 peptides; Nucleus spectra [17]: 6 spectra; Nucleus peptide [18]: 0 peptides; Nucleus spectra [18]: 0 spectra; Nucleus peptide [19]: 0 peptides; Nucleus spectra [19]: 0 spectra; Nucleus peptide [20]: 0 peptides; Nucleus spectra [20]: 0 spectra; Nucleus peptide [21]: 1 peptides; Nucleus spectra [21]: 1 spectra; Nucleus peptide [22]: 1 peptides; Nucleus spectra [22]: 2 spectra; Nucleus peptide [23]: 8 peptides; Nucleus spectra [23]: 17 spectra; Nucleus peptide [24]: 3 peptides; Nucleus spectra [24]: 3 spectra; Nucleus peptide [25]: 0 peptides; Nucleus spectra [25]: 0 spectra; Nucleus peptide [26]: 3 peptides; Nucleus spectra [26]: 3 spectra; Nucleus peptide [27]: 1 peptides; Nucleus spectra [27]: 1 spectra; Nucleus peptide [28]: 2 peptides; Nucleus spectra [28]: 2 spectra; Nucleus peptide [29]: 1 peptides; Nucleus spectra [29]: 1 spectra; Nucleus peptide [30]: 1 peptides; Nucleus spectra [30]: 3 spectra; Nucleus peptide [31]: 0 peptides; Nucleus spectra [31]: 0 spectra; Nucleus peptide [32]: 8 peptides; Nucleus spectra [32]: 12 spectra; Nucleus peptide [33]: 2 peptides; Nucleus spectra [33]: 3 spectra; Nucleus peptide [34]: 4 peptides; Nucleus spectra [34]: 8 spectra; Nucleus peptide [35]: 1 peptides; Nucleus spectra [35]: 1 spectra; Nucleus peptide [36]: 0 peptides; Nucleus spectra [36]: 0 spectra; Nucleus peptide [37]: 0 peptides; Nucleus spectra [37]: 0 spectra; Nucleus peptide [38]: 1 peptides; Nucleus spectra [38]: 1 spectra; Nucleus peptide [39]: 1 peptides; Nucleus spectra [39]: 2 spectra; Nucleus peptide [40]: 1 peptides; Nucleus spectra [40]: 1 spectra

What does the source list for “human AID containing two tandem Flag tags (Flag-human AID) (from UniProt Q9GZX7 1-198) (enzyme)”?
Nucleus peptide [1]: 4 peptides; Nucleus spectra [1]: 5 spectra; Nucleus peptide [2]: 10 peptides; Nucleus spectra [2]: 21 spectra; Nucleus peptide [3]: 6 peptides; Nucleus spectra [3]: 10 spectra; Nucleus peptide [4]: 4 peptides; Nucleus spectra [4]: 12 spectra; Nucleus peptide [5]: 6 peptides; Nucleus spectra [5]: 11 spectra; Nucleus peptide [6]: 9 peptides; Nucleus spectra [6]: 25 spectra; Nucleus peptide [7]: 8 peptides; Nucleus spectra [7]: 15 spectra; Nucleus peptide [8]: 4 peptides; Nucleus spectra [8]: 9 spectra; Nucleus peptide [9]: 13 peptides; Nucleus spectra [9]: 29 spectra; Nucleus peptide [10]: 3 peptides; Nucleus spectra [10]: 3 spectra; Nucleus peptide [11]: 11 peptides; Nucleus spectra [11]: 24 spectra; Nucleus peptide [12]: 5 peptides; Nucleus spectra [12]: 9 spectra; Nucleus peptide [13]: 57 peptides; Nucleus spectra [13]: 160 spectra; Nucleus peptide [14]: 5 peptides; Nucleus spectra [14]: 7 spectra; Nucleus peptide [15]: 4 peptides; Nucleus spectra [15]: 9 spectra; Nucleus peptide [16]: 4 peptides; Nucleus spectra [16]: 7 spectra; Nucleus peptide [17]: 15 peptides; Nucleus spectra [17]: 26 spectra; Nucleus peptide [18]: 7 peptides; Nucleus spectra [18]: 13 spectra; Nucleus peptide [19]: 4 peptides; Nucleus spectra [19]: 7 spectra; Nucleus peptide [20]: 3 peptides; Nucleus spectra [20]: 6 spectra; Nucleus peptide [21]: 4 peptides; Nucleus spectra [21]: 10 spectra; Nucleus peptide [22]: 4 peptides; Nucleus spectra [22]: 6 spectra; Nucleus peptide [23]: 37 peptides; Nucleus spectra [23]: 109 spectra; Nucleus peptide [24]: 6 peptides; Nucleus spectra [24]: 7 spectra; Nucleus peptide [25]: 18 peptides; Nucleus spectra [25]: 41 spectra; Nucleus peptide [26]: 7 peptides; Nucleus spectra [26]: 16 spectra; Nucleus peptide [27]: 5 peptides; Nucleus spectra [27]: 8 spectra; Nucleus peptide [28]: 6 peptides; Nucleus spectra [28]: 13 spectra; Nucleus peptide [29]: 3 peptides; Nucleus spectra [29]: 5 spectra; Nucleus peptide [30]: 6 peptides; Nucleus spectra [30]: 13 spectra; Nucleus peptide [31]: 2 peptides; Nucleus spectra [31]: 5 spectra; Nucleus peptide [32]: 13 peptides; Nucleus spectra [32]: 29 spectra; Nucleus peptide [33]: 3 peptides; Nucleus spectra [33]: 7 spectra; Nucleus peptide [34]: 9 peptides; Nucleus spectra [34]: 17 spectra; Nucleus peptide [35]: 3 peptides; Nucleus spectra [35]: 3 spectra; Nucleus peptide [36]: 3 peptides; Nucleus spectra [36]: 7 spectra; Nucleus peptide [37]: 12 peptides; Nucleus spectra [37]: 23 spectra; Nucleus peptide [38]: 6 peptides; Nucleus spectra [38]: 10 spectra; Nucleus peptide [39]: 5 peptides; Nucleus spectra [39]: 7 spectra; Nucleus peptide [40]: 4 peptides; Nucleus spectra [40]: 6 spectra
